Experiments:
[1] = target: GLP-1 receptor; assay: cell-based or functional assay
[2] = target: human GLP-2 receptor (human) (UniProt O95838); assay: cell-based or functional assay
Sequence of human GLP-2 receptor (human) (O95838 whole entry): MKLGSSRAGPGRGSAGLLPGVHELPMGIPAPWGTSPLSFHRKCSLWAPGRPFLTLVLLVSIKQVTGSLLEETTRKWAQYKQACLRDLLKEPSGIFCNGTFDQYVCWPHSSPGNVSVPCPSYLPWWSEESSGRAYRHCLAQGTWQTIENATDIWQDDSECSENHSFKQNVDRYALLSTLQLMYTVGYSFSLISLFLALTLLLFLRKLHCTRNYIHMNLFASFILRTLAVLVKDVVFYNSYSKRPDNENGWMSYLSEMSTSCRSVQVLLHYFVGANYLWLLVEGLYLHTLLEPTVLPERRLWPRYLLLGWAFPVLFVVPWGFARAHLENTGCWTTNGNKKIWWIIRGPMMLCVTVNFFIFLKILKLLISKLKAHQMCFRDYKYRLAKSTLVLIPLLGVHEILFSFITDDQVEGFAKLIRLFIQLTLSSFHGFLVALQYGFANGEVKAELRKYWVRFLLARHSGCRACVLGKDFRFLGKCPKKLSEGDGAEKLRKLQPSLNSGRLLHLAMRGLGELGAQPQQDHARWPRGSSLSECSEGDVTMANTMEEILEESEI

| Substance | EC50 (pM), cAMP luciferase reporter in GLP1R cAMP/luc cells [1] [pM] | vs. GLP-1 relative activity (%) [1] [%] | EC50 (nM), cAMP-gated CNG channel membrane potential dye fluorescence (Ft/F0) in Human GLP2R ACTOne cells [2] [nM] | vs. GLP-2 relative activity (%) [2] [%] |
| --- | --- | --- | --- | --- |
| native GLP-1 peptide (from UniProt P01275 98-127) | 26 | 100 |  |  |
| native GLP-2 peptide (from UniProt P01275 146-178) |  |  | 0.58 | 100 |
